Molecular target: T1, Pho7-DBD (279-339) (Schizosaccharomyces pombe, UniProt O13658 279-339)
T1 sequence: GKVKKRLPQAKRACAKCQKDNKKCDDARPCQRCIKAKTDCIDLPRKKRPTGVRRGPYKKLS
Assay: crystal structure

B1: tgp1 crystal duplex (dsDNA)
DNA 1: TCCTTCGGACATTCAAATCA
DNA 2: GATTTGAATGTCCGAAGGAT
  binding result: binds

— paper PMC6265462
